Results as given in patent publication US11912789 (INTERK PEPTIDE THERAPEUTICS, dated 2024).
No end group written: not given here. 2Adod = 2-amino-dodecanoic acid; 2Adec = 2-amino-decanoic acid; 12Ado = NCCCCCCCCCCCC(=O)O

B1: RSKAKNPLYR (peptide)
peptide: RSKAKNPLYR
B2: RSKAKNPLY (peptide)
peptide: RSKAKNPLY
B3: SKAKNPLYR (peptide)
peptide: SKAKNPLYR
B4: ASKAKNPLY (peptide)
peptide: ASKAKNPLY
B5: RSAAKNPLY (peptide)
peptide: RSAAKNPLY
B6: KEKLKNPLF (peptide)
peptide: KEKLKNPLF
B7: RYLPNKAKS (peptide)
peptide: RYLPNKAKS
B8: RSKAANPLY (peptide)
peptide: RSKAANPLY
B9: RVKVKVVVVR (peptide)
peptide: RVKVKVVVVR
B10: RVKVKVVVV (peptide)
peptide: RVKVKVVVV
B11: RSRARNPLY (peptide)
peptide: RSRARNPLY
B12: RSKAKNPLYR-(2Adod)4-OH (peptide)
peptide: RSKAKNPLYR-{2Adod-2Adod-2Adod-2Adod-OH}
B13: RSKAKNPLYR-(12-Adod)4-NH2 (peptide)
peptide: RSKAKNPLYR-{12Ado-12Ado-12Ado-12Ado-NH2}
B14: DSEAENPLYD-(2Adod)4-NH2 (peptide)
peptide: DSEAENPLYD-{2Adod-2Adod-2Adod-2Adod-NH2}
B15: RSKAKNPLYR-(2-Adec)4-NH2 (peptide)
peptide: RSKAKNPLYR-{2Adec-2Adec-2Adec-2Adec-NH2}
B16: RSKAKNPLYR-(2Adod)4-NH2 (peptide)
peptide: RSKAKNPLYR-{2Adod-2Adod-2Adod-2Adod-NH2}

Each binder was assayed against Lyn (UniProt P07948 1-512, limits assumed) (assay: cell-based or functional assay).
Chain of Lyn (P07948 whole entry): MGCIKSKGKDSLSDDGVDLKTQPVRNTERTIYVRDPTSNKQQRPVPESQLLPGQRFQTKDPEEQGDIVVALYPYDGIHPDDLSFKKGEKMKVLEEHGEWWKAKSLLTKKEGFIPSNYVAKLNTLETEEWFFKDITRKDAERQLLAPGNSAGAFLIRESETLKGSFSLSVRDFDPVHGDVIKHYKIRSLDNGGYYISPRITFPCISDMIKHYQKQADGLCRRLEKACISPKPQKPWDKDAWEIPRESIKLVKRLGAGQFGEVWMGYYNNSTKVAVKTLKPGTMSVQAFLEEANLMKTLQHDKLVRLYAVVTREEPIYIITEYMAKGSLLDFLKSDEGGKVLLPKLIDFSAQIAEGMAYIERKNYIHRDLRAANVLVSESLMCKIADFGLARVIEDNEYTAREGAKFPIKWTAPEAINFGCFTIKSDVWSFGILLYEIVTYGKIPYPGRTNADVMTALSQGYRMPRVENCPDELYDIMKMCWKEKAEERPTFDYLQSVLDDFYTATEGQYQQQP

Binder | Lyn activity relative to control, peptide at 10 µM
B1 | 0%
B2 | 0%

What follows are binders tested against Fyn (UniProt P06241 1-537, limits assumed) (assay: cell-based or functional assay).
Chain of Fyn (P06241 whole entry): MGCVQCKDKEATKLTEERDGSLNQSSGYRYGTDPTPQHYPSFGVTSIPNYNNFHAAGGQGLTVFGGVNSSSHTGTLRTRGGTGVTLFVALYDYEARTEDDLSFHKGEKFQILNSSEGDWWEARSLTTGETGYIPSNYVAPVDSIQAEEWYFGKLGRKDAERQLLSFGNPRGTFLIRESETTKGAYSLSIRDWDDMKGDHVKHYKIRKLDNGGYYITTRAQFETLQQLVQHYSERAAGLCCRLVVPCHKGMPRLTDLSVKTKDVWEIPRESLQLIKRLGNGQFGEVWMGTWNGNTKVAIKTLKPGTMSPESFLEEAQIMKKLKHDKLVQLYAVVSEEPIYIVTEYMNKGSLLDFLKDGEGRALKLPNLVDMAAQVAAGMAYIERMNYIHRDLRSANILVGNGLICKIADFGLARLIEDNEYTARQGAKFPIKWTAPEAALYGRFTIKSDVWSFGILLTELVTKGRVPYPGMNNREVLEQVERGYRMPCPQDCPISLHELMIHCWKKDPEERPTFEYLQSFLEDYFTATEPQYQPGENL

Binder | Fyn activity relative to control, peptide at 10 µM
B1 | 0%
B2 | 0%

Each binder was assayed against Fgr (UniProt P09769 1-529, limits assumed) (assay: cell-based or functional assay).

Binder | Fgr activity relative to control, peptide at 10 µM
B1 | 0%
B2 | 0%

Each binder was assayed against T1, Lymphocyte-specific protein tyrosine kinase (Lck), enzyme in cell-free kinase assay (human, UniProt P06239 1-509, limits assumed) (assay: cell-based or functional assay).
T1 sequence (P06239 whole entry): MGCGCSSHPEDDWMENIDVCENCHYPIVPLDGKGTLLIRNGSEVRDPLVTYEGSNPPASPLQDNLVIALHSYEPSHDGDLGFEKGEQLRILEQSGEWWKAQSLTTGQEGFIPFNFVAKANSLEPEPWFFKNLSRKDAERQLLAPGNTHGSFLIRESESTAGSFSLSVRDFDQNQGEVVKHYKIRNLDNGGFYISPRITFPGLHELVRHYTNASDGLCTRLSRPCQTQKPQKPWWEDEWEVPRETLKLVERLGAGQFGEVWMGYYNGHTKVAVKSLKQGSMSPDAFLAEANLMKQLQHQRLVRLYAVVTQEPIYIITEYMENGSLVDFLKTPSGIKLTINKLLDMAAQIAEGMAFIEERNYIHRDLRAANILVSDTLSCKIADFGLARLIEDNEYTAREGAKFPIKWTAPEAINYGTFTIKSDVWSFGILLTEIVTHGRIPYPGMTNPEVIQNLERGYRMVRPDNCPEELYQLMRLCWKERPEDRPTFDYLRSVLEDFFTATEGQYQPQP

Binder | Lck activity relative to control, peptide at 10 µM
B1 | 0%
B2 | 186%

Each binder was assayed against cSRC (UniProt P12931 1-536, limits assumed) (assay: cell-based or functional assay).

Binder | cSRC activity relative to control, peptide at 10 µM
B1 | 0%
B2 | 0%

What follows are binders tested against Blk (UniProt P51451 1-505, limits assumed) (assay: cell-based or functional assay).
Chain of Blk (P51451 whole entry): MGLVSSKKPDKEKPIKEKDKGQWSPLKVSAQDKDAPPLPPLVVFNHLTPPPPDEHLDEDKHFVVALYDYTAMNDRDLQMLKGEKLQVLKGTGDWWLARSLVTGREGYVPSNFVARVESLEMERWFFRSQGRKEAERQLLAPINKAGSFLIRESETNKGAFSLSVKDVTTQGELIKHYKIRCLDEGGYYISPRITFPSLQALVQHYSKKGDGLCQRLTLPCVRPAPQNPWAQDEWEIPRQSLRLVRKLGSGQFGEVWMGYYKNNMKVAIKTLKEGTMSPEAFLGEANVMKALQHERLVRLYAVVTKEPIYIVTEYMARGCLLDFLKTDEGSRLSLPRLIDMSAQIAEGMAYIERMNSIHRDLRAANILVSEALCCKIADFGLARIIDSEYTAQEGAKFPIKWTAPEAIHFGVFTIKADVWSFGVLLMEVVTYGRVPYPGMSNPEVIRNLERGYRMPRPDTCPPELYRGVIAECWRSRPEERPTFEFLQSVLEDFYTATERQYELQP

Binder | Blk activity relative to control, peptide at 10 µM
B1 | 0%
B2 | 0%

What follows are binders tested against Yes (UniProt P07947 1-543, limits assumed) (assay: cell-based or functional assay).
Chain of Yes (P07947 whole entry): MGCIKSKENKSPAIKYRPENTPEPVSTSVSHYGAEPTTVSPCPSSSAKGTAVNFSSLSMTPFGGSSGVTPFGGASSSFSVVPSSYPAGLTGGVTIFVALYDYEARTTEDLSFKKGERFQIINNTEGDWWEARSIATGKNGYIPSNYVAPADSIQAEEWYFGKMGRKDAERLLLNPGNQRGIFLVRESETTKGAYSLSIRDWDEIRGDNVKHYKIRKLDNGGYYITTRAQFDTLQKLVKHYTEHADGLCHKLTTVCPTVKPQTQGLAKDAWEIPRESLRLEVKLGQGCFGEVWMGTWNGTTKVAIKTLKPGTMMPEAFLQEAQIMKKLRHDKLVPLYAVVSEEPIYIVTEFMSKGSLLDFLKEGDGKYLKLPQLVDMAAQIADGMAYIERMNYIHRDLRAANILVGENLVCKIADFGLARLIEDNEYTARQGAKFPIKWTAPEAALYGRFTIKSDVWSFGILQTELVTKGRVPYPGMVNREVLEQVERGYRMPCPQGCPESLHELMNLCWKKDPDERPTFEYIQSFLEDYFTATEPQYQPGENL

Binder | Yes activity relative to control, peptide at 10 µM
B1 | 0%
B2 | 0%

The binders below were run against Hck (UniProt P08631 251-518, limits assumed) (assay: cell-based or functional assay).
Chain of Hck (P08631 251-518 limits assumed): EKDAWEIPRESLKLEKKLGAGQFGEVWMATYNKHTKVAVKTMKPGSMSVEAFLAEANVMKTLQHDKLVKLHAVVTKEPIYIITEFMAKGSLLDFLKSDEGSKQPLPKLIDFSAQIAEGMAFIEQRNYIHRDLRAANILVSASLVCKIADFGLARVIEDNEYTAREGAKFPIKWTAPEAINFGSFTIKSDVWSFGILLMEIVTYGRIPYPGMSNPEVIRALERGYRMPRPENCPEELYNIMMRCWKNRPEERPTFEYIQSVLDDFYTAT

Binder | Hck activity relative to control, peptide at 10 µM
B1 | 0%
B2 | 0%

Target: T1, Lymphocyte-specific protein tyrosine …
Experiment: cell-based or functional assay
Remark: another data set of the same source

Binder | Lck Activation above control, 1 µM | Lck Activation above control, 10 µM | Lck Activation above control, 30 µM
B3 | 0% | 0% | 0%
B4 | 0% | 0% | 0%
B5 | 0% | 0% | 0%
B6 | 0% | 0% | 14%
B7 | 0% | 0% | 5%
B8 | 0% | 0% | 0%
B1 | 0% | 0% | 0%
B9 | 13% | 183% | –
B10 | 518% | 501% | 363%
B11 | 0% | 0% | 0%
B2 | 0% | 186% | 407%

Target: T1, Lymphocyte-specific protein tyrosine …
Experiment: cell-based or functional assay
Remark: another data set of the same source

Binder | level of Lck activation relative to the amidated compound …-(2Adod)4-NH2
B12 | ~50%

Target: T1, Lymphocyte-specific protein tyrosine …
Experiment: cell-based or functional assay
Remark: another data set of the same source

Binder | Lck Activation above control, 1 µM
B13 | 96%
B14 | 0%
B15 | 127%
B16 | 499%
